Measured values taken from patent US20200369765A1 (INNATE PHARMA, published 2020).
Where a chain is given by its changes, count along the chain named. Values belong to the binder of their own block, whether it stands above or below them.

Key:
Human Siglec-9 mutant M3 = biological target: T1, Human Siglec-9 mutant M3 (human, UniProt Q9Y336 18-463); assay: flow cytometry, HEK293T transfectants
T1 construct: Expressed on HEK293T cells; also called Mutant 3

[1] = biological target: T2, Human Siglec-9 mutant M15 (human, UniProt Q9Y336 18-463); assay: flow cytometry, HEK293T transfectants
T2 construct: Expressed on HEK293T cells; also called Mutant 15

Human Siglec-9 mutant M9 [2] = biological target: T3, Human Siglec-9 mutant M9 (human, UniProt Q9Y336 18-463); assay: flow cytometry, HEK293T transfectants
T3 construct: Expressed on HEK293T cells; also called Mutant 9

[3] = biological target: T4, Human Siglec-9 mutant M14 (human, UniProt Q9Y336 18-463); assay: flow cytometry, HEK293T transfectants
T4 construct: Expressed on HEK293T cells; also called Mutant 14

Human Siglec-9 mutant M5 = biological target: T5, Human Siglec-9 mutant M5 (human, UniProt Q9Y336 18-463); assay: flow cytometry, HEK293T transfectants
T5 construct: Expressed on HEK293T cells; also called Mutant 5

Human Siglec-9 mutant M2 = biological target: T6, Human Siglec-9 mutant M2 (human, UniProt Q9Y336 18-463); assay: flow cytometry, HEK293T transfectants
T6 construct: Expressed on HEK293T cells; also called Mutant 2

Human Siglec-9 [4] = biological target: T7, Human Siglec-9 (human, UniProt Q9Y336 18-463); assay: flow cytometry titration on moDC vs neuraminidase-treated moDC
T7 construct: On transfected CHO cells; also on YTS and KHYG-1 transfectants, primary NK cells and moDC; also called huSiglec-9; CD329
Description: (§1) moDC were desialylated for 2 hours with 25 mU neuraminidase (Roche Diagnostics).
(§2) Binding on moDCs and neuraminidase treated moDCs was tested in a titration experiment by flow cytometry. Cells were incubated 1h in Staining Buffer (SB) with primary antibodies at 10 ug/ml and a series of dilution of 1:10. They were washed two times with SB, then incubated 30 min with a Goat F(ab′)² Anti-Human IgG (Fc) PE (Jackson ImmunoResearch), and washed twice with SB.

Human Siglec-7 = biological target: T8, Human Siglec-7 (human, UniProt Q9Y286 19-467); assay: flow cytometry, CHO transfectants
T8 construct: Expressed on transfected CHO cells; also called huSiglec-7; CD328

Human Siglec-9 [5] = biological target: T7, Human Siglec-9; assay: flow cytometry titration on neuraminidase-treated moDCs, goat F(ab')2 anti-human IgG (Fc) PE; table under the right panel
Description: as §1, §2

Human Siglec-9 [6] = biological target: T7, Human Siglec-9; assay: flow cytometry on fresh purified human NK cells, mean of 4 donors
Description: Binding of antibodies on fresh purified human NK cells was tested by titration experiment by flow cytometry. Cells were incubated 1h in Staining Buffer (SB) with primary antibodies at 10 ug/ml and a series of dilution of 1:10. They were washed three times with SB, then incubated 30 min with a Goat F(ab′)² Anti-Human IgG (Fc) PE (Jackson ImmunoResearch). Stainings were acquired on a BD FACS Canto II and analyzed using the FlowJo software. EC₅₀ values are shown in the table below in μg/ml (calculated using a 4-parameter logistic fit).
Target sequence in this assay (Q9Y336 18-463): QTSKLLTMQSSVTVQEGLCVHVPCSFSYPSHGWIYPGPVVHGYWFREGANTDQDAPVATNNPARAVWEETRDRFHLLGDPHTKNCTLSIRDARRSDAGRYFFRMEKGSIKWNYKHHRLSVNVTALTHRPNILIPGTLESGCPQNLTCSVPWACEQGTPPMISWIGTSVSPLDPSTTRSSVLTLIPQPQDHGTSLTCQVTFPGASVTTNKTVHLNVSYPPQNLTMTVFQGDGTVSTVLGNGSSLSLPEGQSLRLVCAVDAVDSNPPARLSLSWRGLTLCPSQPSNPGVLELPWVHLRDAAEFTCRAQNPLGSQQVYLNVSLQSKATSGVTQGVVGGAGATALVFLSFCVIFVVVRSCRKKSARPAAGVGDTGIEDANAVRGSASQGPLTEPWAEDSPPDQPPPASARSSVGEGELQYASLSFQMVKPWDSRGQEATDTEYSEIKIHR

[7] = biological target: T9, Human Siglec-9 mutant M10 (human, UniProt Q9Y336 18-463); assay: flow cytometry, HEK293T transfectants; '-' indicates full loss of binding
T9 construct: Expressed on HEK293T cells; also called Mutant 10

Human Siglec-9 mutant M9 [8] = biological target: T3, Human Siglec-9 mutant M9; assay: as above
Target sequence in this assay (Q9Y336 other isoform, or with tags, fused parts or gaps mutant): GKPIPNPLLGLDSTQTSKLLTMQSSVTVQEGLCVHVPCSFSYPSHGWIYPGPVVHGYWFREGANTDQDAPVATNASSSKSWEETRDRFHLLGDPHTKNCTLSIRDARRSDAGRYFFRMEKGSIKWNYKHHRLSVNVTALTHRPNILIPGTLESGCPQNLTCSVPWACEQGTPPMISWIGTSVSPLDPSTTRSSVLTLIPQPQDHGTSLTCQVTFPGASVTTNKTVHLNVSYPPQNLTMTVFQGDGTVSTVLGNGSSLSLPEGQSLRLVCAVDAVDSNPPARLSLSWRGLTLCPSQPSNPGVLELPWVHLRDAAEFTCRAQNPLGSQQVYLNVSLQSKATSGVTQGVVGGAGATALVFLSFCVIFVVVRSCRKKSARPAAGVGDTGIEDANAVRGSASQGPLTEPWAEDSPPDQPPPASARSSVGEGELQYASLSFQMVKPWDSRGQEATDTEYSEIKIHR

[9] = biological target: T10, Human Siglec-9 mutant M11 (human, UniProt Q9Y336 18-463); assay: as above
T10 construct: Expressed on HEK293T cells; also called Mutant 11

Human Siglec-9 mutant M6 = biological target: T11, Human Siglec-9 mutant M6 (human, UniProt Q9Y336 18-463); assay: flow cytometry, HEK293T transfectants
T11 construct: Expressed on HEK293T cells; also called Mutant 6

Human Siglec-9 mutant M7 = biological target: T12, Human Siglec-9 mutant M7 (human, UniProt Q9Y336 18-463); assay: flow cytometry, HEK293T transfectants
T12 construct: Expressed on HEK293T cells; also called Mutant 7

Siglec-7 Fc protein = biological target: T13, Siglec-7 Fc protein (human); assay: ELISA, blocking: Siglec-7 Fc captured on protein A, mAb dilution series, then biotinylated polymer Sia2, streptavidin-peroxidase (top panel); partial inhibition
T13 construct: Produced in CHO cells; also called human Siglec-7 Fc
Description: (§3) Blocking of the interaction between Siglec-7 and -9 and sialylated ligands by anti Siglec-7/9 antibodies was tested on ELISA assays. Siglec proteins were Siglec-7 human Fc and Siglec-9 Human Fc recombinant proteins, and ligands were biotinylated polymers with sialylated trisaccharides (Neu5Aca2-3Galb1-4GcNAcb-PAA-biotin Glycotech #01-077 referred to as “Sia1” and 6′-Sialyllactose-PAA-biotin Glycotech #01-039 (referred to as “Sia2”). Briefly, Protein A was coated on ELISA plates over night at 4° C. After 3 washes and saturation, Siglec-7 Fc and Siglec-9 Fc were added at 0.8 μg/well at RT for 1H30. After 3 washes, mAbs were added at 20 ug/ml and a series of dilution of 1:5. After 3 washes, biotinylated sialylated polymers were added for 3 hours at room temperature. After 3 washes, Streptavidin-Peroxidase (Beckman) was added at 1:1000. […] The absorbance was read at 450 nm.

Siglec-9 Fc protein = biological target: T14, Siglec-9 Fc protein (human); assay: ELISA, blocking: Siglec-9 Fc captured on protein A, mAb dilution series, then biotinylated polymer Sia1 (Neu5Aca2-3Galb1-4GlcNAcb-PAA-biotin), streptavidin-peroxidase (top panel)
T14 construct: Produced in CHO cells; also called human Siglec-9 Fc
Description: as §3

T10 sequence (Q9Y336 other isoform, or with tags, fused parts or gaps mutant): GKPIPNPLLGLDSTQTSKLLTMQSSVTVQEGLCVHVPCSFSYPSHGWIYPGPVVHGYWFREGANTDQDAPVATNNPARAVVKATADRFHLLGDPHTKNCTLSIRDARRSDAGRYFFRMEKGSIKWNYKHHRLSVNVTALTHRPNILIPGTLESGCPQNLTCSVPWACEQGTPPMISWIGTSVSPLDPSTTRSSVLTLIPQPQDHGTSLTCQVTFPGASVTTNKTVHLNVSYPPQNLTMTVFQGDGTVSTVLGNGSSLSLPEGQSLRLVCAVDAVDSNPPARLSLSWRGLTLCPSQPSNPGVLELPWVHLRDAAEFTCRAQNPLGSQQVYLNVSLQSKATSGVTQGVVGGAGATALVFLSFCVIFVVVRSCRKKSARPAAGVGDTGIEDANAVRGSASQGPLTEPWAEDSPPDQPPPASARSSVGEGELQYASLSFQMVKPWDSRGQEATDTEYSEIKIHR
T4 sequence (Q9Y336 other isoform, or with tags, fused parts or gaps mutant): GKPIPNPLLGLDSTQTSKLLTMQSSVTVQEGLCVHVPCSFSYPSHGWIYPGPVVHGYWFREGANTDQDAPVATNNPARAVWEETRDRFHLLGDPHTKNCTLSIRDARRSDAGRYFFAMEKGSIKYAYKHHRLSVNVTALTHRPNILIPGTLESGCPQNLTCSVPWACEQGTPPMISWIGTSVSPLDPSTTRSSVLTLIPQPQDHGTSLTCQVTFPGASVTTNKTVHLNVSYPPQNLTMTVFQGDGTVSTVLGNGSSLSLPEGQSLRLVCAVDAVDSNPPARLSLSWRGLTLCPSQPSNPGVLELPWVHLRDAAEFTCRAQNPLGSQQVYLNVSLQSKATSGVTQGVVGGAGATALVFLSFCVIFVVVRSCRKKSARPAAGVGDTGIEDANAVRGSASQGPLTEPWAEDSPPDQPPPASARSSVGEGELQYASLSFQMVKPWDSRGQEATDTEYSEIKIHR
T8 sequence (Q9Y286 19-467): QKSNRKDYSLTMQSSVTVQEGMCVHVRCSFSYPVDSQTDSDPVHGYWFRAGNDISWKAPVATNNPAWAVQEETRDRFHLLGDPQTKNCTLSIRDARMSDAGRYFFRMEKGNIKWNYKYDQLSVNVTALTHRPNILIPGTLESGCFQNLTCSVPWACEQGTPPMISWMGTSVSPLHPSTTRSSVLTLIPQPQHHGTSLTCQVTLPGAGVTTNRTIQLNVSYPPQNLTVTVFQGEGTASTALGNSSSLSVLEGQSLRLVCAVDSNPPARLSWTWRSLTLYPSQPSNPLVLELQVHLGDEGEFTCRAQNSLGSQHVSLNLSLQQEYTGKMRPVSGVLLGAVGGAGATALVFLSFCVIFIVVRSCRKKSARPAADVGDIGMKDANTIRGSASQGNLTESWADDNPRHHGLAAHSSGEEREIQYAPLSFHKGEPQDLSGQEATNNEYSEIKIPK
T2 sequence (Q9Y336 other isoform, or with tags, fused parts or gaps mutant): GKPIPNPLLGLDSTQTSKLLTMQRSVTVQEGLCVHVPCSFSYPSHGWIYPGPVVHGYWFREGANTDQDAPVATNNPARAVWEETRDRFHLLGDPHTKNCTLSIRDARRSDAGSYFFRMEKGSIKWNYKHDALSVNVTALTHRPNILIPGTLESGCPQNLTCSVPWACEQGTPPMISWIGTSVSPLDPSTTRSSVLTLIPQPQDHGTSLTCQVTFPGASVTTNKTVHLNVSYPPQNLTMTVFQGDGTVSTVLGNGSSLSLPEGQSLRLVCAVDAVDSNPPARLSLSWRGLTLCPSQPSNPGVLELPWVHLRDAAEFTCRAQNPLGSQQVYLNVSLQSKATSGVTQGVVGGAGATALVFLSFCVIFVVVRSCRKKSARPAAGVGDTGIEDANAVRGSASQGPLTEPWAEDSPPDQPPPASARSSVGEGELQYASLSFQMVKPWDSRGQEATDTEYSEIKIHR
T11 sequence (Q9Y336 other isoform, or with tags, fused parts or gaps mutant): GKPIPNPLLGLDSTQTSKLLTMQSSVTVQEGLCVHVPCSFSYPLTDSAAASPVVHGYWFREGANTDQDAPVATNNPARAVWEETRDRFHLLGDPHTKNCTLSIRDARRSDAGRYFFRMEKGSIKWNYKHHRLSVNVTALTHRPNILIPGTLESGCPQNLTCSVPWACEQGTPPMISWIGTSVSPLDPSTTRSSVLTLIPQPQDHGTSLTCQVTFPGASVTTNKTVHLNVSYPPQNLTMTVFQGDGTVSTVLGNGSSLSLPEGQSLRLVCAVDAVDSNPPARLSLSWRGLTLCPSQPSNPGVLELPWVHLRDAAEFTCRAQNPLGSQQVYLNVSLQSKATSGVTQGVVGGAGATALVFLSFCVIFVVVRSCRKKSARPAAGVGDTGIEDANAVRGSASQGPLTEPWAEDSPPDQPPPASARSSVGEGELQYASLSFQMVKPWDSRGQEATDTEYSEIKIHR
T9 sequence (Q9Y336 other isoform, or with tags, fused parts or gaps mutant): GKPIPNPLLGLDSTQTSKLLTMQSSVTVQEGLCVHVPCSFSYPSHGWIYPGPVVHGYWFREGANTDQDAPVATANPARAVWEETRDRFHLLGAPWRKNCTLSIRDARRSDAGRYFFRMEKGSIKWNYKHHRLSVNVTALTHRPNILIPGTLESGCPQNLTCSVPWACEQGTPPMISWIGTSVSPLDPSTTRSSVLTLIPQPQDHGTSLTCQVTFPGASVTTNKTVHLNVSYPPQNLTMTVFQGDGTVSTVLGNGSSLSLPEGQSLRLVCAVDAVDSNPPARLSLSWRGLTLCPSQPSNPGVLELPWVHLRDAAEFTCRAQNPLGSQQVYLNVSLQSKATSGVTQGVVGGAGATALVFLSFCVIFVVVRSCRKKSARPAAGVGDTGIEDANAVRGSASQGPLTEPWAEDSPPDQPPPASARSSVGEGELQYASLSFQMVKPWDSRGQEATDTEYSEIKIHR
T1 sequence (Q9Y336 other isoform, or with tags, fused parts or gaps mutant): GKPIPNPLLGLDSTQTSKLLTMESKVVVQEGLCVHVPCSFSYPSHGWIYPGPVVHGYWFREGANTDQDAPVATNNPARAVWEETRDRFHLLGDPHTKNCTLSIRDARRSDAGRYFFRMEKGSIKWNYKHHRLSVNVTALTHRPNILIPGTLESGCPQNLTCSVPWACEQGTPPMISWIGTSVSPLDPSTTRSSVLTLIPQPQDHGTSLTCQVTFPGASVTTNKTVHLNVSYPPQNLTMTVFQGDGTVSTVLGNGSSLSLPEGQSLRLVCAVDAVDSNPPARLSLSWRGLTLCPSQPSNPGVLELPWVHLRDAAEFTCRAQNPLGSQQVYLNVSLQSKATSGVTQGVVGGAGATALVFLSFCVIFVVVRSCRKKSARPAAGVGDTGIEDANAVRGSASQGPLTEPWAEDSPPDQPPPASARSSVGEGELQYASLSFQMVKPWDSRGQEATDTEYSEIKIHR
T12 sequence (Q9Y336 other isoform, or with tags, fused parts or gaps mutant): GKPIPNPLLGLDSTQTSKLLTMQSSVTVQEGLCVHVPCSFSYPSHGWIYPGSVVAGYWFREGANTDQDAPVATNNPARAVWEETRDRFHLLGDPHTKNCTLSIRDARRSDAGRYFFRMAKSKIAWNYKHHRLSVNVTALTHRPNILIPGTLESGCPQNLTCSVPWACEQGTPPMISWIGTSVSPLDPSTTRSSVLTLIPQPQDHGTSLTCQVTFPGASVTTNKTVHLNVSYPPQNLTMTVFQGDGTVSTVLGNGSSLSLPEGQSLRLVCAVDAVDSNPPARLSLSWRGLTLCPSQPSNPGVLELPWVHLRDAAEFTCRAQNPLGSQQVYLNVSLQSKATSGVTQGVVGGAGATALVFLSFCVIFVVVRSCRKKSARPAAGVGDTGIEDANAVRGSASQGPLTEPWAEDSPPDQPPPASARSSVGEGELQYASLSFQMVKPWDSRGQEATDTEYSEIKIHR

- binding result (Human Siglec-9 mutant M3): binds
- binding result [1]: binds
- binding result (Human Siglec-9 mutant M9 [2]): binds
- binding result [3]: binds
- binding result (Human Siglec-9 mutant M5): binds
- binding result (Human Siglec-9 mutant M2): binds
- fold change of EC50 after neuraminidase treatment of moDC (Human Siglec-9 [4]): 10 fold
- binding result (Human Siglec-7): no binding
- EC50 (Human Siglec-9 [5]): 0.0925 µg/mL
B1: mAbD (antibody, human IgG1, V domains shown)
VH: QIQLVQSGPELKKPGETVKISCKASGYTFTDYSMHWVKQAPGKGLKWMGWIITETGEPTYADDFRGRFAFSLETSANTAYLQINNLKNEDTATYFCARDFDGYWGQGTTLTVSS
VL: DILMTQSPASLSASVGETVTITCRASENIYSYLAWYQQKRGKSPQFLVYNAKTLTEGVPSRFRGSGSGTQFSLKINSLQPEDFGTYYCQHHYGFPWTFGGGTKLEIK

- EC50 (Human Siglec-9 [6]): 0.01 µg/mL
- binding result [7]: no binding
- binding result (Human Siglec-9 mutant M9 [8]): no binding
- binding result [9]: no binding
- binding result (Human Siglec-9 mutant M3): binds
- binding result [1]: binds
- binding result (Human Siglec-9 mutant M6): binds
- binding result [3]: binds
- binding result (Human Siglec-9 mutant M5): binds
- binding result (Human Siglec-9 mutant M7): binds
- binding result (Human Siglec-9 mutant M2): binds
- binding result (Human Siglec-7): no binding
B2: mAbE (antibody, human IgG1, V domains shown)
VH: DVQLVESGGGLVQPGGSRKLSCAASGFTFSTFGMHWVRQAPEKGLEWVAYISSGSNAIYYADTVKGRFTISRDNPKNTLFLQMTSLRSEDTAMYYCASPGYGAWFAYWGQGTLVTVSA
VL: ENVLTQSPAIMSASPGEKVTMTCRASSSVSSAYLHWYQQKSGASPKLWIYSTSNLASGVPARFSGSGSGTSYSLTISSVEAEDAATYYCQQYSAYPYTFGGGTKLEIK

- EC50 (Human Siglec-9 [6]): 0.3 µg/mL
- binding result [7]: no binding
- binding result (Human Siglec-9 mutant M9 [8]): no binding
- binding result [9]: no binding
- binding result (Human Siglec-9 mutant M3): binds
- binding result [1]: binds
- binding result (Human Siglec-9 mutant M6): binds
- binding result [3]: binds
- binding result (Human Siglec-9 mutant M5): binds
- binding result (Human Siglec-9 mutant M7): binds
- binding result (Human Siglec-9 mutant M2): binds
- binding result (Human Siglec-7): no binding
B3: mAbF (antibody, human IgG1, V domains shown)
VH: QVQLQQSGPEVVRPGVSVKISCKGSGYTFTDYSMHWVKQSHAKSLEWIGVISTYNGNTNYNQKFKGKATMTVDKSSSTAYMELARLTSEDSAIYYCARRGYYGSSSWFGYWGQGTLVTVSA
VL: DIVMTQSQKFMSTSVGDRVSVTCKASQNVGTDVAWYQQKPGQSPEALIYSASYRYSGVPDRFTGSGSGADFTLTISNVQSEDLAEYFCQQYNSFPYTFGGGTKLEIK

- EC50 (Human Siglec-9 [6]): 0.08 µg/mL
- binding result (Human Siglec-9 mutant M3): binds
- binding result [1]: binds
- binding result (Human Siglec-9 mutant M9 [2]): binds
- binding result (Human Siglec-9 mutant M6): binds
- binding result (Human Siglec-9 mutant M5): binds
- binding result (Human Siglec-9 mutant M7): binds
- binding result (Human Siglec-9 mutant M2): binds
- fold change of EC50 after neuraminidase treatment of moDC (Human Siglec-9 [4]): 10 fold
- binding result (Human Siglec-7): no binding
- EC50 (Human Siglec-9 [5]): 0.0282 µg/mL
B7: mAbA (antibody, human IgG1, V domains shown)
VH: QVQLQQPGAELVKPGSPVKLSCKASYFTFTSYWMHWVRQRPGQGLEWIGEINPSNGHTNYNEKFESKATLTVDRSSSTAYMQLSSLTSEDSAVFYCANGVESYDFDDALDYWGQGTSVTVSS
VL: DIQMTQTTSSLSASLGDRVTISCRASQDINNYLNWYQQKPDGTIKLLIYYTSRLHSGVPSRFSGSGSGTDYSLTINNLEQEDIATYFCQQGNTLPFTFGGGTKLEIK

Further lines, the binder ahead of its results:

B4: mAb1 (antibody, human IgG1, V domains shown)
VH: DVQLQESGPGLVKPSQSLSLTCTVTGYSITGGFAWNWIRQFPGNTLEWMGYIGYGGSTSYNPSLNSRISITRDTSKNHFFLQFNSVTTDDSATYYCARGDYLFAYWGQGTLVTVSA
VL: DIVMTQSHKFMSTSVGDRVSITCKASQDVNTAVAWYQQKPGQSPKLLIYSASYRYTGVPDRFTGSGSGTDFTFTISSVQAEDLAVYYCQQHYSTPRTFGGGTKLEIK
- binding result [7]: no binding
- binding result (Human Siglec-9 mutant M9 [8]): no binding
- binding result [9]: no binding
- IC50 (read off the curve) (Siglec-7 Fc protein): ~3 µg/mL
- binding result (Human Siglec-9 mutant M3): binds
- binding result [1]: binds
- binding result (Human Siglec-9 mutant M6): binds
- binding result [3]: binds
- binding result (Human Siglec-9 mutant M5): binds
- binding result (Human Siglec-9 mutant M7): binds
- binding result (Human Siglec-9 mutant M2): binds

B5: mAb3 (antibody, human IgG1, V domains shown)
VH: B4 VH with D1E, Q5L, S7T, D89E
VL: DILMTQSPASLSASVGETVSITCRASGNIHNYLAWYLQRQGKSPQLLVYNAKTLADGVPSRFSGTGSGTQFSLKINSLQPEDFGSYYCQHFWSTPRTFGGGTKLEIK
- binding result [7]: no binding
- binding result (Human Siglec-9 mutant M9 [8]): no binding
- binding result [9]: no binding
- binding result (Human Siglec-9 mutant M3): binds
- binding result [1]: binds
- binding result (Human Siglec-9 mutant M6): binds
- binding result [3]: binds
- binding result (Human Siglec-9 mutant M5): binds
- binding result (Human Siglec-9 mutant M7): binds
- binding result (Human Siglec-9 mutant M2): binds
- binding result (Siglec-9 Fc protein): binds

B6: mAb2 (antibody, human IgG1, V domains shown)
VH: B4 VH with D1E, D89E
VL: B4 VL
- binding result [7]: no binding
- binding result (Human Siglec-9 mutant M9 [8]): no binding
- binding result [9]: no binding
- binding result (Human Siglec-9 mutant M3): binds
- binding result [1]: binds
- binding result (Human Siglec-9 mutant M6): binds
- binding result [3]: binds
- binding result (Human Siglec-9 mutant M5): binds
- binding result (Human Siglec-9 mutant M7): binds
- binding result (Human Siglec-9 mutant M2): binds

B8: mAbB (antibody, human IgG1, V domains shown)
VH: QVQLQQPGAELVKPGASVKLSCKASVYTFTSYWMHWVKQRPGQGLEWIGEINPSNGHTNYNEKFKTKAKLTVDKSSSTAYMQLSSLTSEDSAVYFCANGVETYDFDDAMDYWGQGTSVTVSS
VL: B7 VL with I44V, Y50F, N76S, N92D, L94F
- EC50 (Human Siglec-9 [6]): 0.1 µg/mL
- binding result (Human Siglec-9 mutant M3): binds
- binding result [1]: binds
- binding result (Human Siglec-9 mutant M9 [2]): binds
- binding result (Human Siglec-9 mutant M6): binds
- binding result (Human Siglec-9 mutant M5): binds
- binding result (Human Siglec-9 mutant M7): binds
- binding result (Human Siglec-9 mutant M2): binds
- binding result (Human Siglec-7): no binding
